The target in the assay is T1, human CD3e/g antigen (ACRO, catalog number CDG-H52W5) (human, UniProt P07766 23-126; P09693 23-116).
T1 construct: Bought reagent used as the Biacore analyte; also called hCD3e/g
As to the kind of experiment: SPR (Biacore 8K), antibody captured via anti-human Fc. How it is done: The equilibrium dissociation constant of binding of CD3 antibodies to human CD3e/g antigen (purchased from ACRO, catalog number CDG-H52W5) was determined by kinetic binding method using Biacore 8K (GE) system. Through the capture method, the carboxylated dextran surface of CM5 chip was first activated with NHS (N-hydroxysuccinimide) and EDC (1-(3-dimethylaminopropyl)-3-ethylcarbodiimide hydrochloride), and then added with an anti-human IgG (Fc) antibody, the free amino group of which could form an amide bond with the activated carboxyl group, thereby being fixed on the chip surface. The anti-human IgG (Fc) antibody could bind to the Fc end of CD3 antibodies to capture the antibodies, and then a series of concentrations of antigen were added to obtain the binding and dissociation curves of antibody and antigen, and the corresponding kinetic constants were calculated by Biacore Evaluation software, as shown in the table below.
On the technique in general: Surface plasmon resonance follows binding to a sensor surface in real time, without labels.

As usually defined, the Kd is the constant that tells how readily two partners part at equilibrium. A lower Kd goes with tighter binding. As usually defined, the koff is the first-order rate constant of dissociation. As usually defined, the kon is a measure of how fast the partners come together. Read a high kon as faster complex formation.

B1: hAb007-22 (antibody, V domains shown)
VH: QVQLVQSGAEVKKPGASVKVSCKASGSTFTDNYIHWVRQAPGQRLEWIGWIYPGSVNIKYNEKFKDRVTITADTSASTAYMELSSLRSEDTAVYYCARDISRYYFDYWGQGTTVTVSS
VL: DIVMTQSPDSLAVSLGERATINCKSSQSLLNSRTRKNYLAWYQQKPGQPPKLLIYWASTRESGVPDRFTGSGSGTDFTLTISSLQAEDVAVYYCKQSFILRTFGGGTKLEIK
notes: Humanized; constant regions not specified
Molecule B1 yielded a Kd of 13.3 nM, a koff of 0.00594 s⁻¹ and a kon of 446000 M⁻¹ s⁻¹.

B2: hAb007-23 (antibody, V domains shown)
VH: QVQLVQSGAEVKKPGASVKVSCKASGSTFTDNYIHWVRQAPGQRLEWIGWIYPGSVNIKYNEKFKDRVTITADTSASTAYMELSSLRSEDTAVYYCARDISRYYFDYWGQGTTVTVSS
VL: DIVMTQSPDSLAVSLGERATMNCKSSQSLLNSRTRKNYLAWYQQKPGQPPKLLIYWASTRESGVPDRFSGSGSGTDFTLTISSLQAEDVAVYYCKQSFILRTFGGGTKLEIK
notes: as for B1
Take B2: the Kd was 6.59 nM, the koff turned out to be 0.0029 s⁻¹ and the kon worked out at 439000 M⁻¹ s⁻¹.

B3: hAb007-26 (antibody, V domains shown)
VH: QVQLVQSGAEVKKPGASVKVSCKASGSTFTDNYIHWVRQAPGQRLEWIGWIYPGSVNIKYNEKFKDRATITADTSASTAYMELSSLRSEDTAVYYCARDISRYYFDYWGQGTTVTVSS
VL: DIVMTQSPDSLAVSLGERATINCKSSQSLLNSRTRKNYLAWYQQKPGQPPKLLIYWASTRESGVPDRFTGSGSGTDFTLTISSLQAEDVAVYYCKQSFILRTFGGGTKLEIK
notes: as for B1
In turn, B3 yielded a Kd of 12 nM, a koff of 0.00565 s⁻¹ and an on-rate constant (kon) of 470000 M⁻¹ s⁻¹.

B4: hAb007-24 (antibody, V domains shown)
VH: QVQLVQSGAEVKKPGASVKVSCKASGSTFTDNYIHWVRQAPGQRLEWIGWIYPGSVNIKYNEKFKDRVTITADTSASTAYMELSSLRSEDTAVYYCARDISRYYFDYWGQGTTVTVSS
VL: DIVMTQSPDSLAVSLGERATMNCKSSQSLLNSRTRKNYLAWYQQKPGQPPKLLIYWASTRESGVPDRFTGSGSGTDFTLTISSLQAEDVAVYYCKQSFILRTFGGGTKLEIK
notes: as for B1
With B4, the Kd amounted to 6.16 nM, the koff worked out at 0.00258 s⁻¹ and the kon amounted to 419000 M⁻¹ s⁻¹.

B5: hAb007-28 (antibody, V domains shown)
VH: QVQLVQSGAEVKKPGASVKVSCKASGSTFTDNYIHWVRQAPGQRLEWIGWIYPGSVNIKYNEKFKDRATITADTSASTAYMELSSLRSEDTAVYYCARDISRYYFDYWGQGTTVTVSS
VL: DIVMTQSPDSLAVSLGERATMNCKSSQSLLNSRTRKNYLAWYQQKPGQPPKLLIYWASTRESGVPDRFTGSGSGTDFTLTISSLQAEDVAVYYCKQSFILRTFGGGTKLEIK
notes: as for B1
B5 displayed a Kd of 11.8 nM, a koff of 0.00494 s⁻¹ and a kon of 420000 M⁻¹ s⁻¹.

B6: hAb007-25 (antibody, V domains shown)
VH: QVQLVQSGAEVKKPGASVKVSCKASGSTFTDNYIHWVRQAPGQRLEWIGWIYPGSVNIKYNEKFKDRATITADTSASTAYMELSSLRSEDTAVYYCARDISRYYFDYWGQGTTVTVSS
VL: DIVMTQSPDSLAVSLGERATINCKSSQSLLNSRTRKNYLAWYQQKPGQPPKLLIYWASTRESGVPDRFSGSGSGTDFTLTISSLQAEDVAVYYCKQSFILRTFGGGTKLEIK
notes: as for B1
Regarding B6, binding was characterised by a dissociation constant (Kd) of 9.24 nM, the koff amounted to 0.0043 s⁻¹ and the kon stood at 465000 M⁻¹ s⁻¹.

B7: hAb007-27 (antibody, V domains shown)
VH: QVQLVQSGAEVKKPGASVKVSCKASGSTFTDNYIHWVRQAPGQRLEWIGWIYPGSVNIKYNEKFKDRATITADTSASTAYMELSSLRSEDTAVYYCARDISRYYFDYWGQGTTVTVSS
VL: DIVMTQSPDSLAVSLGERATMNCKSSQSLLNSRTRKNYLAWYQQKPGQPPKLLIYWASTRESGVPDRFSGSGSGTDFTLTISSLQAEDVAVYYCKQSFILRTFGGGTKLEIK
notes: as for B1
The molecule B7 showed a Kd of 10 nM, a dissociation rate constant (koff) of 0.00427 s⁻¹ and a kon of 427000 M⁻¹ s⁻¹.

These data come from patent US20250346668A1 (GENOR BIOPHARMA, published 2025).
